The text below walks through data of US10450368 (DUKE UNIVERSITY, dated 2019).

Assay [1] addresses T1, HIV-1 CH505 transmitted/founder gp120 Env (HIV-1).
T1 construct: domain: gp120; also called CH505.TF gp120; CH505 TF gp120 Env
In words: direct-binding ELISA (OD450), panel 'CH505.TF gp120'.

Assay [2] concerns the target CH505 TF loop D mutant M8 Env (pseudovirus) (HIV-1). Put plainly: cell-based or functional assay.
Assay [3] deals with T2, RNP (ribonucleoprotein).
T2 construct: Protein-RNA complex
Put plainly: AtheNA, Ab 12.5 ug/ml.

Assay [4] concerns the target T3, Jo-1 (UniProt P12081 1-509).
T3 sequence: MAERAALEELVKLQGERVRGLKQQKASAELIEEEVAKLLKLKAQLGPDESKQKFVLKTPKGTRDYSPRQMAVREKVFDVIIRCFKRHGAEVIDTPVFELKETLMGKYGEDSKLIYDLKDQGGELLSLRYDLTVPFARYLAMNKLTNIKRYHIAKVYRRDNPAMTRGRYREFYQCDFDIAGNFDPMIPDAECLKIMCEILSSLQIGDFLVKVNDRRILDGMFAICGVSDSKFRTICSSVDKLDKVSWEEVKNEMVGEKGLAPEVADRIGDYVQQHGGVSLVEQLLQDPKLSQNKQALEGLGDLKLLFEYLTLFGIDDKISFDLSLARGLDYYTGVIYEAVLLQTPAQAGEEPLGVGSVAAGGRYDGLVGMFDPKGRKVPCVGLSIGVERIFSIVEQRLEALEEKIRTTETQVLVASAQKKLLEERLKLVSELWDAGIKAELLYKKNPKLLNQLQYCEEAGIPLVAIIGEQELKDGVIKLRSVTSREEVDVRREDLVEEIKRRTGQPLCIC
In words: AtheNA, Ab 12.5 ug/ml.

For another assay, the target named is T4, Sm (Smith antigen).
T4 construct: Protein complex
Put plainly: AtheNA, Ab 12.5 ug/ml.

Assay [5] has as its target T5, SSA.
T5 construct: also called SSA (Ro)
In words: AtheNA, Ab 12.5 ug/ml.

The next assay addresses T6, Centromere B (UniProt P07199 1-599).
T6 construct: also called Cent B
T6 sequence: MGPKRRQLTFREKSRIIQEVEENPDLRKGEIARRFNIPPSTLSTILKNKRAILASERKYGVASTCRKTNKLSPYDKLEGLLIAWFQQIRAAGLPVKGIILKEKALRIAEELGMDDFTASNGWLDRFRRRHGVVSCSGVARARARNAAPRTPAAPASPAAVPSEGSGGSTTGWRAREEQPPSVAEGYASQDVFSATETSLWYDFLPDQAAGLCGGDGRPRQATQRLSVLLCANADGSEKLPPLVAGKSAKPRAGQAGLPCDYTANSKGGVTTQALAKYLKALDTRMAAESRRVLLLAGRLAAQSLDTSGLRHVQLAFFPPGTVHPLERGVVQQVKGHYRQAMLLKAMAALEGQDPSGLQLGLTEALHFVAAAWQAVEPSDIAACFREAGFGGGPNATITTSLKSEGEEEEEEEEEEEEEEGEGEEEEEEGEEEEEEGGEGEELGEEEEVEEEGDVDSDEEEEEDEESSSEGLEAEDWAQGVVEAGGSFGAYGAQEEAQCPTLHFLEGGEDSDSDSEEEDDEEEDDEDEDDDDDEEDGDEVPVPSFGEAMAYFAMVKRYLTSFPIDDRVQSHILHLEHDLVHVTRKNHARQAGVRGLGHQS
In words: AtheNA, Ab 12.5 ug/ml.

In another assay the target is T7, Scl-70 (UniProt P11387 1-765).
T7 sequence: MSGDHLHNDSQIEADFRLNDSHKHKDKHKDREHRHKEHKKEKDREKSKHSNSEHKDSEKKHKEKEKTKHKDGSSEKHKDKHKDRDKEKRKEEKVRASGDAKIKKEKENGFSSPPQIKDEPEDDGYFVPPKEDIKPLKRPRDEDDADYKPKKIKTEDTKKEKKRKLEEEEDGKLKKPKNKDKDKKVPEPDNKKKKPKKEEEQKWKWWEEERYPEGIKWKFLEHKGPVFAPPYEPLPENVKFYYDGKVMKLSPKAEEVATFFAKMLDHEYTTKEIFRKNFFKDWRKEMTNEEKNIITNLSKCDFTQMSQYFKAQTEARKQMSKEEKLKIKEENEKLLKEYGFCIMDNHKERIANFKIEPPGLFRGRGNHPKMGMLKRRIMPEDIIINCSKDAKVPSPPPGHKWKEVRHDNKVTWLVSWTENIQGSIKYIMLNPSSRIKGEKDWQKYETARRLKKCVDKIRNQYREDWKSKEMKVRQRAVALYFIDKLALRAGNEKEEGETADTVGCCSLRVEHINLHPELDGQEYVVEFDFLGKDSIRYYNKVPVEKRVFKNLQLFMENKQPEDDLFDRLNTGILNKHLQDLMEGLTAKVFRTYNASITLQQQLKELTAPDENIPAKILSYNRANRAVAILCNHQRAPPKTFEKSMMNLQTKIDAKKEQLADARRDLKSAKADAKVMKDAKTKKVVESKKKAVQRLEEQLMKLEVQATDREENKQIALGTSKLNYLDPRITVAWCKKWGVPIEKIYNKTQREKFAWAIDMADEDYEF
In words: AtheNA, Ab 12.5 ug/ml.

Assay [6] concerns the target T8, Histones.
T8 construct: Mixture of proteins
In words: AtheNA, Ab 12.5 ug/ml.

In the next assay the target is T9, SSB (UniProt P05455 1-408).
T9 sequence: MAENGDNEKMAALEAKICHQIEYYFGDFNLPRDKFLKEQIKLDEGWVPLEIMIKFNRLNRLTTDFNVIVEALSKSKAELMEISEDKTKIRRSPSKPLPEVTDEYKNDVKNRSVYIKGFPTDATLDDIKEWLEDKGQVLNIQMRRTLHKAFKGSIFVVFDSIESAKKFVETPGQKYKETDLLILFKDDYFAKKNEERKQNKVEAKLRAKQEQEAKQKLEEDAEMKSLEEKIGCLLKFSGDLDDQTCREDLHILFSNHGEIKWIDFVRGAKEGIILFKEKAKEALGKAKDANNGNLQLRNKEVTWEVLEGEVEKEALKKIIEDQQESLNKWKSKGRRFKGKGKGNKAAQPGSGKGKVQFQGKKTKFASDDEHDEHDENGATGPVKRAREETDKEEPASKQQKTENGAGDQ
Put plainly: AtheNA, Ab 12.5 ug/ml.

Assay [7] has as its target T2, RNP (ribonucleoprotein). Put plainly: AtheNA, Ab 25 ug/ml.
Assay [8] deals with T3, Jo-1. In words: AtheNA, Ab 25 ug/ml.
For assay [9], the target named is T5, SSA. Put plainly: AtheNA, Ab 25 ug/ml.
Assay [10] concerns the target T8, Histones. Put plainly: AtheNA, Ab 25 ug/ml.

B1: CH493 (antibody, V domains shown)
VH: QVRLLQYGGGVKRPGASMTISCVASGYNFNDYYIHWVRQAPGQGLELMGWIDPSGGRTDYAGAFGDRVSMYRDKSMNTLYMDLRSLRSGDTAMYYCVRNVGTAGSLLHYDHWGLGVMVTVSS
VL: EIVLTQSPATLSVSPGERVTLSCRASQSVRNNLAWYRQKRGQAPRLLIYGASTRATGIPARFSGSGSGTEFTLTISSMQSEDFAVYYCQQYNNWWTFGQGTKVEIK
notes: also called CH235.9; DH493
For B1, the “EC50 (read off the curve)” value in assay [1] is approximately 0.7 µg/mL. The “neutralization IC50, TZM-bl pseudovirus assay” value in assay [2] is 0.66 µg/mL.

B2: CH557 (antibody, V domains shown)
VH: QVRLAQYGGGVKRLGATMTLSCVASGYTFNDYYIHWVRQAPGQGFELLGYIDPANGRPDYAGALRERLSFYRDKSMETLYMDLRSLRYDDTAMYYCVRNVGTAGSLLHYDHWGSGSPVIVSS
VL: EIVLTQSPATLSASPGERVTLTCRASRSVRNNVAWYQHKGGQSPRLLIYDASTRAAGVPARFSGSASGTEFTLAISNLESEDFTVYFCLQYNNWWTFGQGTRVDIK
notes: also called CH235.12; CH557_4A/293i
As to B2, the AtheNA signal in the assay with RNP (ribonucleoprotein) [3] is 3 relative luminescence units; with Jo-1 [4] it was 5 relative luminescence units; with Sm (Smith antigen), 6 relative luminescence units; in the assay with SSA [5], 3 relative luminescence units; with Centromere B it was 16 relative luminescence units; with Scl-70, 3 relative luminescence units. For the same molecule, the AtheNA signal was 6 relative luminescence units in the assay with Histones [6]; 9 relative luminescence units with SSB; 6 relative luminescence units with RNP (ribonucleoprotein) [7]; 2 relative luminescence units with Jo-1 [8]; 4 relative luminescence units with SSA [9]; 8 relative luminescence units in the assay with Histones [10].

What is called EC50 (read off the curve) is the midpoint of the concentration-response curve. Read a low EC50 (read off the curve) as an effect from little substance.
